As usually defined, the Kd is the concentration at which binding is half-saturated. High values mean a looser complex, low ones a tighter complex. As usually defined, the koff is the rate constant with which the complex falls apart. Broadly, the kon is the second-order rate constant of association.

Sequences and labels used below:
B1: Anti-IL-6 antibody, heavy chain S35H, G66D, L100F / light chain WT (antibody, IgG1, V domains shown)
VH: EVQLVESGGGLVQPGGSLRLSCAASGFTFSPFAMHWVRQAPGKGLEWVAKISPGGSWTYYSDTVTDRFTFSLDTSKSTAYLQMNSLRAEDTAVYYCARQFWGYYALDIWGQGTLVTVSS
VL: DIQLTQSPSSLSASVGDRVTITCSASISVSYMYWYQQKPGKAPKLLIYDMSNLASGVPSRFSGSGSGTDFTLTISSLQPEDFATYYCMQWSGYPYTFGQGTKVEIK
notes: IgG1; variable domains only
B2: Anti-IL-6 antibody, heavy chain S35H, G66D, L100T / light chain WT (antibody, IgG1, V domains shown)
VH: EVQLVESGGGLVQPGGSLRLSCAASGFTFSPFAMHWVRQAPGKGLEWVAKISPGGSWTYYSDTVTDRFTFSLDTSKSTAYLQMNSLRAEDTAVYYCARQTWGYYALDIWGQGTLVTVSS
VL: DIQLTQSPSSLSASVGDRVTITCSASISVSYMYWYQQKPGKAPKLLIYDMSNLASGVPSRFSGSGSGTDFTLTISSLQPEDFATYYCMQWSGYPYTFGQGTKVEIK
notes: IgG1; variable domains only
B3: Anti-IL-6 antibody, heavy chain S35H, G66D, L100H / light chain WT (antibody, IgG1, V domains shown)
VH: EVQLVESGGGLVQPGGSLRLSCAASGFTFSPFAMHWVRQAPGKGLEWVAKISPGGSWTYYSDTVTDRFTFSLDTSKSTAYLQMNSLRAEDTAVYYCARQHWGYYALDIWGQGTLVTVSS
VL: DIQLTQSPSSLSASVGDRVTITCSASISVSYMYWYQQKPGKAPKLLIYDMSNLASGVPSRFSGSGSGTDFTLTISSLQPEDFATYYCMQWSGYPYTFGQGTKVEIK
notes: IgG1; variable domains only
B4: Anti-IL-6 antibody, heavy chain S35H, G66D, L100R / light chain M32L, M50D, N52S, M88Q (antibody, IgG1, V domains shown)
VH: EVQLVESGGGLVQPGGSLRLSCAASGFTFSPFAMHWVRQAPGKGLEWVAKISPGGSWTYYSDTVTDRFTFSLDTSKSTAYLQMNSLRAEDTAVYYCARQRWGYYALDIWGQGTLVTVSS
VL: DIQLTQSPSSLSASVGDRVTITCSASISVSYLYWYQQKPGKAPKLLIYDDSSLASGVPSRFSGSGSGTDFTLTISSLQPEDFATYYCQQWSGYPYTFGQGTKVEIK
notes: IgG1; variable domains only; VL is variant III
B5: Anti-IL-6 antibody, heavy chain S35H, G66D, L100P / light chain M32L, M50D, N52S, M88Q (antibody, IgG1, V domains shown)
VH: EVQLVESGGGLVQPGGSLRLSCAASGFTFSPFAMHWVRQAPGKGLEWVAKISPGGSWTYYSDTVTDRFTFSLDTSKSTAYLQMNSLRAEDTAVYYCARQPWGYYALDIWGQGTLVTVSS
VL: DIQLTQSPSSLSASVGDRVTITCSASISVSYLYWYQQKPGKAPKLLIYDDSSLASGVPSRFSGSGSGTDFTLTISSLQPEDFATYYCQQWSGYPYTFGQGTKVEIK
notes: as for B4
B6: Anti-IL-6 antibody, heavy chain S35H, G66D, L100H / light chain M32L, M50D, N52S, M88Q (antibody, IgG1, V domains shown)
VH: EVQLVESGGGLVQPGGSLRLSCAASGFTFSPFAMHWVRQAPGKGLEWVAKISPGGSWTYYSDTVTDRFTFSLDTSKSTAYLQMNSLRAEDTAVYYCARQHWGYYALDIWGQGTLVTVSS
VL: DIQLTQSPSSLSASVGDRVTITCSASISVSYLYWYQQKPGKAPKLLIYDDSSLASGVPSRFSGSGSGTDFTLTISSLQPEDFATYYCQQWSGYPYTFGQGTKVEIK
notes: as for B4
B7: Anti-IL-6 antibody, heavy chain S35H, G66D, L100S / light chain WT (antibody, IgG1, V domains shown)
VH: EVQLVESGGGLVQPGGSLRLSCAASGFTFSPFAMHWVRQAPGKGLEWVAKISPGGSWTYYSDTVTDRFTFSLDTSKSTAYLQMNSLRAEDTAVYYCARQSWGYYALDIWGQGTLVTVSS
VL: DIQLTQSPSSLSASVGDRVTITCSASISVSYMYWYQQKPGKAPKLLIYDMSNLASGVPSRFSGSGSGTDFTLTISSLQPEDFATYYCMQWSGYPYTFGQGTKVEIK
notes: IgG1; variable domains only
B8: Anti-IL-6 antibody, heavy chain S35H, G66D, L100R / light chain WT (antibody, IgG1, V domains shown)
VH: EVQLVESGGGLVQPGGSLRLSCAASGFTFSPFAMHWVRQAPGKGLEWVAKISPGGSWTYYSDTVTDRFTFSLDTSKSTAYLQMNSLRAEDTAVYYCARQRWGYYALDIWGQGTLVTVSS
VL: DIQLTQSPSSLSASVGDRVTITCSASISVSYMYWYQQKPGKAPKLLIYDMSNLASGVPSRFSGSGSGTDFTLTISSLQPEDFATYYCMQWSGYPYTFGQGTKVEIK
notes: IgG1; variable domains only
B9: Anti-IL-6 antibody, heavy chain S35H, G66D, L100K / light chain WT (antibody, IgG1, V domains shown)
VH: EVQLVESGGGLVQPGGSLRLSCAASGFTFSPFAMHWVRQAPGKGLEWVAKISPGGSWTYYSDTVTDRFTFSLDTSKSTAYLQMNSLRAEDTAVYYCARQKWGYYALDIWGQGTLVTVSS
VL: DIQLTQSPSSLSASVGDRVTITCSASISVSYMYWYQQKPGKAPKLLIYDMSNLASGVPSRFSGSGSGTDFTLTISSLQPEDFATYYCMQWSGYPYTFGQGTKVEIK
notes: IgG1; variable domains only
B10: Anti-IL-6 antibody, heavy chain S35H, G66D, L100Q / light chain WT (antibody, IgG1, V domains shown)
VH: EVQLVESGGGLVQPGGSLRLSCAASGFTFSPFAMHWVRQAPGKGLEWVAKISPGGSWTYYSDTVTDRFTFSLDTSKSTAYLQMNSLRAEDTAVYYCARQQWGYYALDIWGQGTLVTVSS
VL: DIQLTQSPSSLSASVGDRVTITCSASISVSYMYWYQQKPGKAPKLLIYDMSNLASGVPSRFSGSGSGTDFTLTISSLQPEDFATYYCMQWSGYPYTFGQGTKVEIK
notes: IgG1; variable domains only
B11: Anti-IL-6 antibody, heavy chain S35H, G66D, L100I / light chain M32L, M50D, N52S, M88Q (antibody, IgG1, V domains shown)
VH: EVQLVESGGGLVQPGGSLRLSCAASGFTFSPFAMHWVRQAPGKGLEWVAKISPGGSWTYYSDTVTDRFTFSLDTSKSTAYLQMNSLRAEDTAVYYCARQIWGYYALDIWGQGTLVTVSS
VL: DIQLTQSPSSLSASVGDRVTITCSASISVSYLYWYQQKPGKAPKLLIYDDSSLASGVPSRFSGSGSGTDFTLTISSLQPEDFATYYCQQWSGYPYTFGQGTKVEIK
notes: as for B4
B12: Anti-IL-6 antibody, heavy chain S35H, G66D, L100I / light chain WT (antibody, IgG1, V domains shown)
VH: EVQLVESGGGLVQPGGSLRLSCAASGFTFSPFAMHWVRQAPGKGLEWVAKISPGGSWTYYSDTVTDRFTFSLDTSKSTAYLQMNSLRAEDTAVYYCARQIWGYYALDIWGQGTLVTVSS
VL: DIQLTQSPSSLSASVGDRVTITCSASISVSYMYWYQQKPGKAPKLLIYDMSNLASGVPSRFSGSGSGTDFTLTISSLQPEDFATYYCMQWSGYPYTFGQGTKVEIK
notes: IgG1; variable domains only
B13: Anti-IL-6 antibody, heavy chain S35H, G66D, L100G / light chain WT (antibody, IgG1, V domains shown)
VH: EVQLVESGGGLVQPGGSLRLSCAASGFTFSPFAMHWVRQAPGKGLEWVAKISPGGSWTYYSDTVTDRFTFSLDTSKSTAYLQMNSLRAEDTAVYYCARQGWGYYALDIWGQGTLVTVSS
VL: DIQLTQSPSSLSASVGDRVTITCSASISVSYMYWYQQKPGKAPKLLIYDMSNLASGVPSRFSGSGSGTDFTLTISSLQPEDFATYYCMQWSGYPYTFGQGTKVEIK
notes: IgG1; variable domains only

human IL-6, sequence (P05231 30-212 limits assumed): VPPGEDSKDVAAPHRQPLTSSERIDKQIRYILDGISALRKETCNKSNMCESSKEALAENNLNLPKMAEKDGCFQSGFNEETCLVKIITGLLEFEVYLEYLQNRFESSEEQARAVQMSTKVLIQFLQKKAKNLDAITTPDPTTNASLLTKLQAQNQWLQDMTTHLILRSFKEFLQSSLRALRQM

The assay has as its target human IL-6 (human, UniProt P05231 30-212). Nature of the assay: SPR Biacore, supernatant, Protein A capture, 37 C. As for the experimental part:
Those four positions were selected based on their tolerance for mutations as observed in bacterial and mammalian screens. […] These cultures were centrifuged and supernatants containing secreted antibodies were harvested and diluted in HBS-EP+ running buffer (1:20 ratio).
Antibodies were captured on a Protein A chip (GE) by injecting 1:20 cell supernatant dilutions at 10 μL/min for 60 seconds. […] The sensor chip was regenerated by a 60 seconds injection of 10 mM Glycine pH 1.7 at the flow rate of 50 μL/min. […] For this setup, 1 μg/mL of purified antibody was injected over a Protein A chip at 10 μL/min for 25 seconds. […] The sensor chip was regenerated by a 60 seconds injection of 10 mM Glycine pH 1.7 at flow rate of 50 μL/min. Data analysis for supernatant and purified samples were performed using BIAevaluation software (GE). All sensorgrams were double reference subtracted and fit using a 1:1 Langmuir binding model.
In the case of B1, the Kd was found to be 0.244 nM, the koff is 0.000612 s⁻¹ and the kon came out at 2.51e+06 M⁻¹ s⁻¹.

Consider B2, for which the Kd was 0.217 nM, the koff was 0.000724 s⁻¹ and the kon was 3.34e+06 M⁻¹ s⁻¹.

Molecule B3 yielded a Kd of 0.688 nM, an off-rate (koff) of 0.000498 s⁻¹ and a kon of 723000 M⁻¹ s⁻¹.

For the molecule B4, the Kd was determined as 0.878 nM, the koff was determined as 0.00116 s⁻¹ and the kon stood at 1.32e+06 M⁻¹ s⁻¹.

B5 returned an equilibrium dissociation constant (Kd) of 4.66 nM, a koff of 0.00354 s⁻¹ and a kon of 759000 M⁻¹ s⁻¹.

In the case of B6, binding was put at a Kd of 0.83 nM, the koff is 0.00129 s⁻¹ and the kon was 1.55e+06 M⁻¹ s⁻¹.

For B7, binding was put at a Kd of 0.196 nM, the koff came out at 0.000644 s⁻¹ and the kon turned out to be 3.28e+06 M⁻¹ s⁻¹.

Molecule B8 showed a dissociation constant Kd of 1.01 nM, a koff of 0.000957 s⁻¹ and a kon of 951000 M⁻¹ s⁻¹.

The molecule B9 showed a Kd of 0.18 nM, a koff of 0.00106 s⁻¹ and a kon of 5.88e+06 M⁻¹ s⁻¹.

B10 had a Kd of 0.18 nM, a koff of 0.00064 s⁻¹ and a kon of 3.56e+06 M⁻¹ s⁻¹.

The molecule B11 gave a Kd of 0.372 nM, a koff of 0.000712 s⁻¹ and a kon of 1.91e+06 M⁻¹ s⁻¹.

In the case of B12, the Kd was determined as 0.692 nM, the koff turned out to be 0.000644 s⁻¹ and the kon came to 931000 M⁻¹ s⁻¹.

B13 showed a Kd of 0.3 nM, a koff of 0.00096 s⁻¹ and a kon of 3.2e+06 M⁻¹ s⁻¹.

(Values after patent US20240209076A1 (KODIAK SCIENCES, published 2024).)
